According to the DeepSol protein solubility set:

Assay: soluble on expression in E. coli; label from the status in PepcDB or PDB records

Sequence	soluble on expression in E. coli
SLKALWIYVGPVEDYGWTRAHHDGHMKARSKLGWLESSYIETVSEDKAYDVIKAQLDAEGYDAVFATSYGYMDALKRLATEYPDVKFYHCSGPWEEFRDLPNVSTYFAEFYQLYYLNGLAAAGATETCNLGYIPAFLIPEVVRHINAYVIGAVEGAKVLGKCGDGRNIRVLVTPPLNSWFAPDKARDAARLLVETYDVDVIAYTEDTTAVLETAESYWDQGVKVYSFSHYTDMYAYFKSQGKTLRSHLTGQIS	soluble
MKKKSNLTLFMKQLIRSLKEEERFSTAHIYQSTLNAFMLFCKTDAIRFNQMERSRLKQFENHLRNKGCTWNTVSTYMRTLRSIYNKAVDDGLAEEKPRLFRHVYTGVKANTKRALDAKDMSKLLSASLPRPLPQSMKESRAWITLMFLLRGMPFVDLAHLRKTDLQDSVISYRRHKTGALLTVEIPPAAMNLIKRYQNTDSASPYLLPILSGNRKSEEEYAEYQHALRKLNYDLKQLAVYCGIKLNVSSYTSRHTWATLAKYCHFSEQLICDALGHSSTKVTETYLKSFKNDELDRANKVIINHINISI	not soluble
SENLYFQGSASATCERCKGGFAPAEKIVNSNGELYHEQCFVCAQCFQQFPEGLFYEFEGRKYCEHDFQMLFA	soluble
MTKLVKINYPNIDEDLYYVKLENGLTVYFIKKIGFLEKTAMLTVGFGSLDNKLTVDDESRDAPAGIAHFLEHKLFEDESGGDISLKFTQLGAETNAFTTFNQTSFFFSTASKFQENLELLQYFVLSANITDESVSREKKIIGQEIDMYQDDADYRAYSGILQNLFPKTSLANDIAGSKASIQKITKILLETHHTYFYQPTNMSLFIVGDIDIDETFLAIQRFQTTLSYPDRKRVTVDPLHYYPVIKSSSVDMDVTTAKLVVGFRGYLTLTQHSLLTYRIALKLFLSMLIGWTSKIYHTLYEDGKIDDSFDVDVEIHHNFQFVLISLDTPEPIAMSNYIRQKLATIKISKEFTNEHLNLLKKEMYGDFIQSLDSIEHLTHQFSLYLSDSDKETYFDIPKIIERLTLKDVVTIGKAFFEKADASDFTVFPK	not soluble
MNSNRTPSQKVLARQEKIKAVALELFLTKGYQETSLSDIIKLSGGSYSNIYDGFKSKEGLFFEILDDICKKHFHLIYSKTQEIKNGTLKEILTSFGLAFIEIFNQPEAVAFGKIIYSQVYDKDRHLANWIENNQQNFSYNILMGFFKQQNNSYMKKNAEKLAVLFCTMLKEPYHHLNVLINAPLKNKKEQKEHVEFVVNVFLNGINSSKA	soluble
MIPMEELKVKKITNGTVIDHIDAGKALMVFKVLNVPKETSVMIAINVPSKKKGKKDILKIEGIELKKEDVDKISLISPDVTINIIRNGKVVEKLKPQIPDEIEGTLKCTNPNCITNKEKVRGKFKIESKNPLKIRCYYCEKFLNEVIFE	soluble
MVTVREAKLEDIKDIAKVHVDSWRTTYHEIIPIDYLNSLNYKEFEDKWKSRSLKGVFVAQDEKGSVFGFASFGPIRSEQEGYDGELYAIYLLEERQRQGAGRALLAKGAEFLLQHGFSSMFVWVIEQNPSIIFYQAYSPERVAEDNFEIAGVRLKEVGLGWPDLSALKTLLNR	soluble
MKYNREKLKNKVCLAIIGMPHGIKGDVLLKILSSEPQRLKTYGTLYDDRGHSYEIVMLRMQKKNAIVHFKGVEDRSAAEALRGIHLYVARDQLVDDLTEDEFYQVDLIGLRVQDCTGRILGEVSGLFNFGAGDLLEMRLNTGKTVLIPFSKAAVLEVCIASGFLVVDPVAAGLSDGGENTLEHHHHHH	soluble
MNSRIMFIGGVPGVGKTSISGYIARNTDIDIVLSSDYLREFLRPFAPQESHLETSVYDAWKFYGDMSDDNIIRGYLDQARPIMGGINRVIARALANGEDLIIESLYFVPDMMDEMVLKNAFLAYVYIDDPDLHRSRLEDRINYTHRNSPGSRLAAHLKEYRTIMDYSMDMARGRGIGLYSTDDYALARQRLLDDFRKFVDRR	not soluble
MRKKEDKYDFRALGLAIKEARKKQGLTREQVGAMIEIDPRYLTNIENKGQHPSLQVLYDLVSLLNVSVDEFFLPASSQVKSTKRRQLENKIDNFTDADLVIMESVADGIVKSKEVGEMAGENLYFQ	soluble
MGSDKIHHHHHHMESVYLFSSGTLKRKANTICLETESGRKYIPVENVMDIKVFGEVDLNKRFLEFLSQKRIPIHFFNREGYYVGTFYPREYLNSGFLILKQAEHYINQEKRMLIAREIVSRSFQNMVDFLKKRKVRADSLTRYKKKAEEASNVSELMGIEGNAREEYYSMIDSLVSDERFRIEKRTRRPPKNFANTLISFGNSLLYTTVLSLIYQTHLDPRIGYLHETNFRRFSLNLDIAELFKPAVVDRLFLNLVNTRQINEKHFDEISEGLMLNDEGKSLFVKNYEQALRETVFHKKLNRYVSMRSLIKMELHKLEKHLIGEQVFGSEE	not soluble
ILTAGPTVDGRNIEQSVIDDIAETYDPKRYNARINEEHWSWSDKFGSVLSVEKRDDQLFAVLKPNSLLLSTIEKGQLLHTSCEIRANFQGTGKSYLTGLALTDEPASVGTTEMHLSAKEKNKDKSYFSSGATISKDDLSNNIDVDVQEDRKFLSRLKQLLSLGEPDKTQSLEESEDMNEELKELLQAQTAAVTALTAQVTSLAATLNKEESAPVEEENNETELAEKVDALSTKLDDVVTKLSNITDEPNRNLAGVDGDTEY	not soluble
MGSDKIHHHHHHMAERLGISIRSIYRDIDSLRAQGVRIDASAGLGFQLKEDILLPPVTFNENEAEALFLALEWLKDVPDQAMKSAAVSIYSKLYAVLPEHRKYLIDDMTLGVTHYWHPVDEALVEQVRLAIRKQVKIKVDYCDEHKRISQRSLWPFALGYLHDKVVLAAWCELRQAFRHFRIDRIHDLQMSEEIYPEFKKHLFQRWWKQEMQRTTDKN	not soluble
MAHHHHHHMTATPEMAEYCLRVIAQQISAPDDPSVPLPVIPKEDSACFVTLTTLPQERLRGCIGSLQPGDLKKDMRRLALAAAFQDSRFPKVKEEELPTLRCCFSLLHTFEPCAAWNDWEIGKHGLIADYDGYSATYLPSVAEEQGWDHRETLVSLLEKAGFEKPVTDHVLGKVRLTRYQVSKALKDYKDIIAS	not soluble
MSSEDFYRELKQRSLFEAIHLIEQELLKVESQIGTDALPKNEKLNLKVNASLGFENAQLVSTKPLGKDKLALETNLIGLTGEQGVLPQHYSELALHRLKEGDHAMVDFYDIFNHRLLSLYYRSWQLSQLTIQARAHAKNQRSPLTDCMSSLTGGGNDLALHYGGMYASPTRSKGALKSILECLSGCQIRIHEFQGQWMRLSKSEQTRLVSKSMPEGQFAQLGAGASLGKKAWNINASTTIEFLPKESKQVTNLLPKTNTLKTIKQVAGDFIGKHKHVKWQLTTKHSLLPQVQISKQQGQLGVGSVLKKHERTEDRNITITV	not soluble
MAHHHHHHMTSGPNNTTNIYDPIEVARANPYFKRNHMGQVTCTLCGIYCPEENNFLKHIAGKTHALQLERRQHKELRHLRLQEEERLNTEAEERARKEEALLALSGGQAGSGAAGGAGALSSAAAAAANARFGTPLYSFRTEHDEVAYRTKVWIEVMFTQAEEGTRPLHRWLSAREQHVEKPPDDYFVYLLFACEGYTTVALKFPAKANRSQPRDVLEEADGSTSEAYWCSWDPLQKVYTLFFALSR	soluble
MNPAALSAFTRSLLFNRCSTSSFCNSITRNAVAFFATAAATPKINVNVGTIGHIDHGKTTLTSAITRVQAKKGFAKHIKFDEIDKGKEEKKRGITINVAHIGYESPLRRYSHTDCPGHSDFIKNMICGTSQMDVAVLVIAATDGVMEQTKEHLILAKQVGVKNMAIFINKADLVEEDDLDLVEMEARELLSLHGFNGDATPVIRGSALSALEGQDISCIERLIDALDSLPEPDRNEKDTFVMPIASKTAITGRGTVIVGTLERGVLKKGDKVEIKGDGQTLQTTASDIQVFGKSVKEVRAGDHCGVLCRGVKGDTVKRGMWAGHPGAVTITNRVKVELYLLSEAENGRKIGIRTGFTDKMYCSTWDQVGRFDMSNELLMPGEHTSATVLLMKDMPLRKGMPFTLREGSSKTTIARGIISDLEDHVAVEKHNLKKSAEKM	not soluble
SLKRIDWNIQYLSLPPVIKHCKKCGKKTEFICSGMFRINAQRKYLDVWLIYKCSNCNSTWNMTIYTRVKPKSIEPKLLEAFHNNDKELAERYAVNLELIRKNGVELGYTKYKIIGEDINFRIPVELHIKSTYPSQLKVAALIREKLNLSQSSFESLITKGLIRGDTEINLKKCRLRTEVIVIIDSLDWSEVAFALAL	soluble
MISYQKAKLAKNLAISTASKWLFVHSSTGGSATNLSIAQYATLINGIQSAIKCQVILTAGKGERERAVELAEKLTDQNVVIYDKNDGLADFTRSLACADLFIAGSTGPLHIAGGLNIPTVGFYPSRLSATPRRWRPINQVDKHLAFCPPSGKQCEMDLTLISIEQALTSVIPFIKKMWQLSLEHHHHHH	not soluble
VIIGLHNPKSPTNVGAVMRAAGCYNATQVRYNGTRYARAVKFQTDTQNSHERIGLVEMDDLTAGLDSEVKIVCVELAVGATALPHFTHPEQAIYLFGPEDGSLPQEVVDQAHYVVYVPTHGCMNLAATVNVVLYDRLAKSL	not soluble
MKIAIIGLGLMGGSLGLCLKENKLISCVYGMDLSKENEKDALQLGLIHELIEFKDLALCDMIFVATPVNAIIEILQKLVDLPSNVTIIELGSTKRKIIESLPKNLIKQTLFAHPMTGTENSGPKAAFKELYKDAVCVLCDSEIADDLHQKRAVEIFSHLGMKIVFMDSKAHDHHAAIISHLPHVISFSLANFVMKEEDKRNIVHLAGGSFKGMSRIAKSSPQMWESIFLQNKDNLLSSIDFFQQELERCKQMIQLDKNDELREWMKQANTLREILMGHHHHHHSH	soluble
MKKINKGKSLSRFQLVSTLSVLGAMGLAGNVHAAEAFAADSPWMTGDWNGKRTELLDKGYDFSLEYVSEMASNLKGGSNDDTTGRYSDQFALGMKVDLQKVLGWQDAEFKLAITERSGRNISNDRIGDPRAGTLSSSQEVWGRGQTWRLTQMWVKQKYFDGALDVKAGRFGPGEDFNSFPCDFQNLSFCGSQVGNYVNTWYNWPISQWALRVKYNITPEVYAQVGVYEQNPSNLETGNGFKLSGSGTKGMILPVELVWTPTVNSLPGEYRVGYYKSTPNADDVYEDVNGQPQAATGAAFKSHDSKHGWWVVAQQQLTSHNGDASRGLSIFANATVHDKETNFVDNYQQIGLTYKGPFNSRPKDDIGVGIARIHVNDDVQDRVRLANQISGINDFDNPGYLPVQSTEYNSEIYYGFHVTNWLTVRPNLQFIKHPGGVDQVDDAIVAGIKIQSKF	not soluble
ENRLVVIVLRGAMDGLDLVRPVGDPLFATYRPRLAQDGQKGEGGVIPLSEGFVLHPLLNGLSALWRKGELGFVHAVSTPYRDKRSHFDGQDMLEAGTGPDVPPGVARDGWLNRMLQAVPGLEAETAWAIGRDPLPLMEGEAPVRVWSPDLALDLSAQNRRLLEELYHEDPLFRDVGTEALELAAKLSHGAGGEGPRDAKKDLAAIDELAAFAASQLRGAARIAAFSLSGWDTHRNQAAAIRKPLLKLQRMLLQLQAELGPVWDRTAILAMTEFGRTARENGSAGTDHGTAGAMIMAGGAIRGGRVLGRWPGLDEAALYDRRDLMPTSDVRAWAAWTMRSLYGFDRELLERSVFPGIEMREDPGLVL	not soluble
MENVEKRLIQLFTTYLNKAKHHMQGGSDMPNELVIGLHCRGEFESHRSWMQPRVQRGLEERMLFSSHKRAQIYKEAATSSLVAASSAPGEVREG	soluble
MGSDKIHHHHHHMENLLEVQQLNKSYKNSEFQLTDITFSVKPGEVVGLIGKNGSGKSTLINTLVGNRHKDNGSLKFFNKEVTENDFKYKEHLGVVFDDLRVPDKLTLQSINKVFTEIYDAWNSDTFFSLIKAFELPTNNQIKTFSRGMRMKAALTIALSHDAKLLILDEATAGMDVSGREHVLEILEDYLGDDRAILISSHISEDIEQLATQLVFMRDGRIILKESKEVLLSQYGIIDQPVEHFNISNEYLIATRRRNDRQISLVNNYQKVPDAQPLKTIDDATKIIMRGEV	not soluble
